Consider three molecules from publication PMC3507880, “Rationale-Based Engineering of a Potent Long-Acting FGF21 Analog for the Treatment of Type 2 Diabetes” (PLoS ONE, 2012).

Substitutions are numbered along the chain they refer to.

In data set [1] the target is Q9NSA1. Nature of the data set: SEC; SEC-HPLC (Bio-Sil SEC-250, 2x PBS with 2% isopropyl alcohol); 65 mg/ml in 10 mM potassium phosphate, 5% sorbitol, pH 8.0; stored at 25°C or 4°C for 2 to 9 days; high molecular weight species as % of total. (In general: In gel filtration, larger molecules generally elute earlier.)
For data set [2], the target named is T1, human βKlotho (human, UniProt Q86Z14 1-996).
T1 sequence (looked up): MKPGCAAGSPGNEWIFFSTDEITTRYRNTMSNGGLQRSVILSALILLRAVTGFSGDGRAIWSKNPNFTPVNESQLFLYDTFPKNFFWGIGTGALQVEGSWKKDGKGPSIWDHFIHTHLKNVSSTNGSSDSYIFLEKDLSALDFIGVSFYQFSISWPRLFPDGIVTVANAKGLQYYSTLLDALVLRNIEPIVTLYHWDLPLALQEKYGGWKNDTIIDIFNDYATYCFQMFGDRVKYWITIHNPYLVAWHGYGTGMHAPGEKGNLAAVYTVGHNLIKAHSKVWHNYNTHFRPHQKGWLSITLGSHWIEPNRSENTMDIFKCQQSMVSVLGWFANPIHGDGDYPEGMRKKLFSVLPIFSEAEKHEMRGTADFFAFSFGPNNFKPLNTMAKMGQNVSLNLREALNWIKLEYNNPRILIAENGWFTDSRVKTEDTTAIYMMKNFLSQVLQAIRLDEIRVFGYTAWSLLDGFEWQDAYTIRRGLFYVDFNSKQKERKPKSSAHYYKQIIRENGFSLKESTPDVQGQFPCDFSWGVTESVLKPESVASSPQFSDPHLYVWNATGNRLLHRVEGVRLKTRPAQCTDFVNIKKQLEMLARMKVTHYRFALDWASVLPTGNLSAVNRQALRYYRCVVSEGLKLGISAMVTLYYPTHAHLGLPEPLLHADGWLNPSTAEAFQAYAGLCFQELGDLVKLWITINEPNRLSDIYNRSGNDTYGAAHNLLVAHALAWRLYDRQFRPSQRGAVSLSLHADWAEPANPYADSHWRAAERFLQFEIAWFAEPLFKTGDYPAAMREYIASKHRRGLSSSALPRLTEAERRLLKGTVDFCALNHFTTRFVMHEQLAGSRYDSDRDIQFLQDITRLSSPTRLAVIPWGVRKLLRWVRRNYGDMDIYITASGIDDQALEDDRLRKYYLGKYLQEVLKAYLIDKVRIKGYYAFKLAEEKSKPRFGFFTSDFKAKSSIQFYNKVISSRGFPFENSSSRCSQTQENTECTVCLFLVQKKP
Kind of data set: cell-based or functional assay.

B1: Fc-FGF21(RG) (protein)
chain: HPIPDSSPLLQFGGQVRQRYLYTDDAQQTEAHLEIREDGTVGGAADQSPESLLQLKALKPGVIQILGVKTSRFLCQRPDGALYGSLHFDPEACSFRERLLEDGYNVYQSEAHGLPLHLPGNKSPHRDPAPRGPARFLPLPGLPPALPEPPGILAPQPPDVGSSDPLSMVGGSQGRSPSYAS
Regarding B1, in data set [1], the “aggregates, percent of total, over 9 days” value was “the amount of aggregates remained below 3% at all tested conditions”.

B2: wild type human mature FGF21 (protein)
chain: B1 chain with R98L, G171P
As for B2, the “high molecular aggregates, percent of total, day 5” value in data set [1] was “the high molecular aggregates accounted for 50% and 25% of total native FGF21 and Fc-FGF21, respectively”.

B3: Fc-FGF21 (N-terminal Fc fusion of human mature FGF21, wild type) (Fc fusion, UniProt Q9NSA1 29-209, looked up)
chain: B1 chain with R98L, G171P
With B3, the “Elk1-dependent luciferase reporter in 293T cells stably overexpressing human βKlotho or CHO cells overexpressing human βKlotho and human FGFR1c; maximal activity relative to native FGF21” value in data set [2] was roughly 80%. Moreover, the “high molecular aggregates, percent of total, day 5” value in data set [1] is “the high molecular aggregates accounted for 50% and 25% of total native FGF21 and Fc-FGF21, respectively”.
